According to the DeepSol protein solubility set:

assay: soluble on expression in E. coli; label from the status in PepcDB or PDB records

| Sequence | soluble on expression in E. coli |
| --- | --- |
| MAHHHHHHMDPKEFVQRFPKSALSAKLVLSLEITEQRDFVVSLIDDAVYCDSWEAYFDFAERNNVAITEDVALAAVQAVGLDPLSAPLWVRAAACCESVESRKSLYEFGLSVPLHGWQRLFEEYRRCTDGHEDDHVLSETECWCVSNVLTAEKWPDRYAKLDTDTEAENVRQAWLELFACMLAGLASTAIARDLQLRRMELAMRQMCTQLPGDDSCWYQLALFQLCILEDAEAARKTVACGIAAAGSSFALENIASVADGVVGVSDSSGTSSADVLSATKALMQQRRAAEELALDGVTKDRVRALRSVGKAAAQQGLGDWKIFSQWRCAEDMAAHDTKMAAKVLENGMICCSHSPADALLLGSEAAQYHLLQRHEREALGYAEQQIEQQAELHHRGKILASWNSLVRIENLLGLSFSKAAKRRAELFPQNRISTFMENCRVGDYLPCDKSTFQWARFVEDYQVDKASVEETPFHGIAPPRNEAVAVKRLQQVECETPDDSQWEPFVPPLSCLPSREEENPDDVTGVRELRGKLVYRVKMDARTAARCQREKATRQRSMTGEKAVERGGALGALVRRVRPVNLTVGQTKRLQSVSADWVVHVLTVSELDLERTLKERAERQESHDMSV | not soluble |
| MGSDKIHHHHHHMPTMIPAASRAMAVFEVFAREKRELSNSDMARLLSLPESSTSDLLHTLHSLGYLMRTTRTRRFYPTGRLSEIARQIAENDPLTTVAQEAIEQVSARTNESVFFGVLDGTAVKVMAVQASRLPLRYIIEVGYRAALHASALGKGLLGLLPPEEARETLAKSSLRAVTAHTVVDIDTLMAQVAKGRKRGWYEAHEEGSEGVHGLAVTGWLGGQAAGISLAGPAERMKKNHDAYLAALIEVRDALMSEE | not soluble |
| MSLDVRQSIHSAHAKTLDTQGLRNEFLVEKVFVADEYTMVYSHIDRIIVGGIMPITKTVSVGGEVGKQLGVSYFLERRELGVINIGGAGTITVDGQCYEIGHRDALYVGKGAKEVVFASIDTGTPAKFYYNCAPAHTTYPTKKVTPDEVSPVTLGDNLTSNRRTINKYFVPDVLETCQLSMGLTELAPGNLWNTMPCHTHERRMEVYFYFNMDDDACVFHMMGQPQETRHIVMHNEQAVISPSWSIHSGVGTKAYTFIWGMVGENQVFDDMDHVAVKDLREGHHHHHH | soluble |
| MGKSASKQFHNEVLKAHNEYRQKHGVPPLKLCKNLNREAQQYSEALASTRILKHSPESSRGQCGENLAWASYDQTGKEVADRWYSEIKNYNFQQPGFTSGTGHFTAMVWKNTKKMGVGKASASDGSSFVVARYFPAGNVVNEGFFEENVLPPKK | soluble |
| MKIAGFDIGGANTDMAIIDFGSDGDMKEVRVDFRYLPMWLRKDELAETLLEMVGDDLHELEGVGVCMTAELVDAYPSKAAGVADIIDRVEGAFDVPVAYVSLSGMVDASEALADPMNIAAANWVATSQIASAMSSDCIMVDVGSTTTDIIPVKDGFEAARGRNDLERLSTGELVYTGTLRTNVATIVDRVPLQDKWFRVSSELFAVTADVHRVLGNIGESDYTCSTPDGAGKSVEECMLRIARVLCADLELLSPGDVLDVAEYIYHQQILKIAEGIAEVSEREGLEEVVTTGLGMKILAQRAAEVLELECRTMDEFLTEEECVVAPAVGTALLMEDYLQAQGLLEHHHHHH | not soluble |
| MQSKTAKLPDNDRNRPLIQTFNDAQQKVWFDDALLHEDPSQCCNPEFWQQNGKVLGSATGRGTTWFVQLQQTQGALRHYRRGGLFGKLVADSYWFTGWEKTRSYQEFMLLNHLRDAGVNVPRPIAARVQKHGLLYKADLLSEKVPNARDLVSILQESPISDELYRKIGREIRKMHDAQVNHTDLNIHNILIDDQEKVWIIDFDKCYVQIGDSWKQGNLKRLKRSFEKEVCKRGINWSLEAFAIISSYKHEE | not soluble |
| MGSDKIHHHHHHLYNNSANTQFTGKSIHFLPSCHSTNTEASLLIRAQKAVNGLIVITNEQTAGRGQQGNSWLSKADSNLTFSVIFFPEKLHLKDSFYLNIVSSLSIAKTVDELVPENIVKVKWPNDILLNNKKVCGILIENMLRGEHIHAVVMGIGVNVNHSDGNLPFAGAMSSEAAKTFHLQEVFTRICENLEPYYLMLEQGLFAELDALYLQNLYGLNEKKHFSDSEGNFTGTIQAVLPGGLLQVEKESGVIKQYTFKEVSLVK | not soluble |
| MGSDKIHHHHHHMSELRQQCLWEHVSKPTVAAQALAGEHKADVCVIGGGITGLSAAIHLLEQGKSVIVLEAWKIGHGGSGRNVGLVNAGTWIRPDDVEATLGQKQGSRLNKVLGEAPAEVFAMIERLGIDCQAQHKGTLHMAHNATGIADLEARHEQWRRRGADVELLTGAQCQEYCGTDKISAALLDRRAGTINPMGYTQGLAAAVTRLGGKIFQQSSVEGLEREGDGWRVKTARGAVRAEKVVISTGAYTEGDWSNLQKQFFRGYYYQVASKPLQGIAADKVLPHGQGSWDTRTVLSSIRRDDQGRLLLGSLGRVDNKPAWFVRSWADRIQSHYYPELGKVEWEMHWTGCIDFTPDHLMRLFEPAPGLVAVTGYNGRGNTTGTVIGRAFAEFLLKGEADSLPIPFSPMSGVSAPSLRTAFYESGFSLYHAGQCLRVVL | not soluble |
| MAHHHHHHMAASYLVLQRYTDLINSGDLDAAFNYLSEDIIYVTWLGVIEGKDNVVTFLRDNMRFLHFAKHFNRWRQVQHCLDADLSRHCDDSDVGGSNLFDRDGYDRQGYASFERDGMIANIVKLSMQKTRVRETVVIRDNKVVLVTLMEQL | not soluble |
| MGSDKIHHHHHHMGSSRKVIITCAVTGAIHTPSMSPYLPVTPDEVAQASIGAAEAGAAVIHLHARDPRDGRPTQDPAAFAEFLPRIKSNTDAVINLTTGGSPHMTVEERLRPATHYMPELASLNMGSMNFGLYPMLERFKEFAHGWEREHLERSRDLVFKNTFADIEFILKTCGGNGTRFEFECYDTSHLYNLAHFVDRKLATPPFFVQTVFGLLGGIGPHPEDLAHMRRTADRLFGADYVWSILGAGRHQIPLASIGAAQGANVRVGLEDSLWIAPGELAETNAAQVRKIRQVIEGLSLEVASPAEARTMLGLKGPQNVNF | not soluble |
| MGSDKIHHHHHHMDKDERLHYLDSLERLRGSKVLVYFAYTPLDDSILVPLYEQLKAIGHTEKIDLLLHSYGGAVDTPYKVVMLIREFCNEFGVIVPFVAKSAASMLVLGADEVVMGPISELGPIDPLIKHPIYKELWVPVQAIRYCIDYLQRSIESNPNPELVTGIITPMINKLDPWLIGDYEKALKASHQYAEALLSRYMLKDNPELVPVVTRALTEGYFSHGYPIGRQEAKELGLRVTEAEDELWDVIWSLYRGYEELFSTCDSGDRV | not soluble |
| MIKAIFTRQKNGQLSSVTLTGHAGSGKHGFDIVCASVSTLAINFVNSLEVLADCQALVDLNDVEGGYMAITIPPHDNKEEVQLLFESFLLGMTSLAKDSSKFVNTQVI | not soluble |
| MSLDFATEYVYPAFSELTGTDKIVAFGDHSHKCPIYVPQTPPCTAECPAGEDIRAINRFLNGTDPSDDPLKSAWETATDTNPFPAVMGRICPHPCQSKCNRGVHDESVAINAVEQVLGNYGIEHNLKLKGPGADTGKRVAIIGGGPAGLSAAYQLRRKGHAVTIYDANEKLGGMVLYGIMGYRVDRKVLEAEIGRIIELGVETKMGVTIGKDITLEQLEAEYDAVFIAVGAQKGRALPVPGFEGTPGATNAIDFLKSYEVLGDDIPVGKHVVVIGDGNVSMDVARLALRLGSQATIISGVPREEMACFENEFDDAKNEGTTMHFLTGTVEVLGGASGVTGLRCTKMVKKEKGEEGWNSPIPFLRYKSNGESFEIEADMVVAAIGQATDLSGLGSAASGPWLKVDRNFRIPGREKLFGGGDALKVDLITTAVGHGRKAAYAIDAFLKGEPMPEEGHHHHHH | soluble |
| MGSDKIHHHHHHMDYRKIIKEIGRGKNHARDLDLDTARGLYTRMLNGDVPDLEMGSILMALRIKGEGEAEMLGFYEAMQNHTIKLTPPADRPLPVVIPSYNGARKQANLTPLLAILLHKLGFPVVVHGVSEDPTRVLTETIFELMGIIPTLHGGQAQAKLDGRQPVFIPVSALCPPLEKQLAMRWRMGVRNSAHSLAKLATPFAEDAALRLSSVSHPEYVPRVATFFSRIGGRALLMHGTEGEVYANPQRCPQISLIDSRGVQVLHERQSDTYDEPLSLPATKDPEITARWIERCLAGHEPVPQSLKTQMACCLVATGEAATLEDGLARVEQAFSE | not soluble |
| MSLDIARIAVHESVAKACPLEAMVAALQGPDVRVETVGDDASFDASDCVVTFSPREAFLDAAWVHGIRAGYDEFDVDAYEAAGTVLTNSTGIHGDTVPETVVGYLTAFARRLHVYRDRQRDNDWTQEPYDAPFTLTGEQVCVVGLGTIGQGVADRTDALGMDVVGVRRSGDPAENVERVYTPDELDAAVADARFVVLCCPLTEETEGMVDAALLAQMRADSYLVNVARGPVVVEDALLNALDTGTIAGAALDAHWAEPLPDDHPLWNHESAIVTPHVAAATSRYHEDIAALVRENVERATRGESLRNRVAEGHHHHHH | not soluble |
| VSNKTYYLVGTSHISENSVKLVKEVIERVQPDTVSIELDKKRYEKYTNSNQWGNTDIIKIIKEKKLVVLISNIVYSAYQKKLANTKGTTQAGELIQAIKSAKEIGANIQLIDRDIQVTFKRMWRHLSFLEKPKLFMTFFTEFDDIEQDKLEEYLESDSFDKVFISLSKKYPSLYQDMITDRDKYMSTKLKNNSSQVNVVVVGKAHMKGIKEKLEKRTEFSL | not soluble |
| SDQVFVMGHRYPDMDVIGSSLGVMRIAEMNNRNAYVVVEPGKMSPDVKRLMNEIEEYPNVIKNIVTPQVALENITEKSLLVVVDTHKPSMVINKELLDSATNVVVVDHHRRSEEFVGNPVLVYIEPYASSTAELITELFEYQPDLEQVGKIEATALLSGIVVDTKNFTLRTGSRTFDAASYLRSLGADTILVQQFLKEDI | not soluble |
| MKASIYDFTLKELSQLLKPSFRAKQLYLWLYAKYKTSFKDMQNNFSKDFIAYLEREFALRTIEITHVRESVDGSKKYLFKSLRDNHTFEAVLLKMKDKKIDAETNAILEREKYTVCVSCQIGCQVGCSFCFTQKGGFVRNLKASEIIQQALLIKEDNNLPLEKALNIVFMGMGEPLNNLDEVCKAIEIFNTGMQISPKRITISTSGVADKIPILAGKNLGVQLAISLHAVDDKTRSSLMPLNKKYNIECVLNEVRKWPLEQRKRVMFEYLLIKDLNDSLDCAKKLLKLLNGIKSKVNLILFNPHEGSKFERPSLENARMFADFLNSKGLLCTIRESKALDIEAACGQLREKKLSQQILEHHHHHH | soluble |
| MQQIFFKDPILGEVLFDQQTKWMYELVETEAFRRLRNIKQLGINFHFYPGGVHT | not soluble |
| MTNAKPENALAAIGIARKELDADRYILISSDLVYTPSNDPKAEDSRTEPITDEGRIFLTAESLMNQERDAIFRTGFIIGLCSVNLYTNVLNMVRSGMRLSLSKSTIRNFIRNADLSSFIMRSIERNISGVYNVASDASTAYDFAKRLCDMAGLKCTLEDSGEDLGNYTMDTSRSLKTFGMRPMSVFEGYTISGSFDLR | not soluble |
| GSHMMKVEKEIKTNQDIDVVMTIFSDPAFTIPQIFPGIASIKCIEPEIFEAEGKFLAFSYKVKGRVYKGVDEVRIIYDSDRGNGILYIRKKDNNTLQIILEHDNKLTAFLGKPYVSSNLDRLAENIDEIIRLERIKRKI | soluble |
| MPTPRRSGRVIVYTGDGKGKTTAALGLALRAVGRGMNVAVLQFLKSPERTYGEQLALERLGVDVRQLGAGFTWTKTPDIHREALKRAWAVAKEYVYSGRYDMIVLDELNNVLAIDRFPVEDIVSVSEVLELIRTRPPSLHLVITGRAARPELMAAADIVTEMKLIKHDYEQGRTAMKGIEF | soluble |
